Among the data in US20250320252A1, “LONG-ACTING DUAL GIP/GLP-1 PEPTIDE CONJUGATES AND METHODS OF USE” (The Scripps Research Institute, priority 2021, published 2025) are In Vitro Potency GLP1R EC50 [nM], Cyno and In Vitro Potency GIPR EC50 [nM], Cyno values, retold here.

Assay [1] concerns the target cynomolgus monkey GLP1R (cynomolgus monkey) (UniProt F8V479). Kind of assay: cell-based or functional assay.
Assay [2] addresses cynomolgus monkey GIPR (cynomolgus monkey). Kind of assay: cell-based or functional assay.

The substance Semaglutide (peptide) displayed an In Vitro Potency GLP1R EC50 [nM], Cyno in assay [1] of 0.13 nM. Consider Tirzepatide (peptide), for which the In Vitro Potency GIPR EC50 [nM], Cyno in assay [2] is 0.08 nM.
